Patent publication US20240156928A1

Molecular target: CD19 (UniProt P15391)
Experiment: cell-based or functional assay

CD19R:CD28:z(CO) CAR with L235E and N297Q in the IgG4 spacer (CD19R(EQ))
intracellular IFNγ staining, percent of T cells: 30%
